{
  "source": "paper doi:10.1101/2022.09.29.510028",
  "about": "(bioRxiv, 2022)",
  "binders": {"B1": {"name": "NPM1_(ΔIDR) (NTD and CTD linked without the IDR) (other)", "chain": "MEDSMDMDMSPLRPQNYLFGCELKADKDYHFKVDNDENEHQLSLRTVSLGAGAKDELHIVEAEAMNYEGSPIKVTLATLKMSVQPTVSLGGFEITPPVVLRLKCGSGPVHISGQHLVAVEPSSVEDIKAKMQASIEKGGSLPKVEAKFINYVKNCFRMTDQEAIQDLWQWRKSL"}, "B2": {"name": "rpL5_(21-37) (residues 21-37 of ribosomal protein L5) (peptide)", "peptide": "RRRREGKTDYYARKRLV"}, "B3": {"name": "NPM1_(120) (N-terminal domain, residues 1-120) (domain or fragment)", "chain": "MEDSMDMDMSPLRPQNYLFGCELKADKDYHFKVDNDENEHQLSLRTVSLGAGAKDELHIVEAEAMNYEGSPIKVTLATLKMSVQPTVSLGGFEITPPVVLRLKCGSGPVHISGQHLVAVE"}, "B4": {"name": "NPM1_(188) (NTD and the acidic regions of the IDR, residues 1-188) (domain or fragment)", "chain": "MEDSMDMDMSPLRPQNYLFGCELKADKDYHFKVDNDENEHQLSLRTVSLGAGAKDELHIVEAEAMNYEGSPIKVTLATLKMSVQPTVSLGGFEITPPVVLRLKCGSGPVHISGQHLVAVEEDAESEDEEEEDVKLLSISGKRSAPGGGSKVPQKKVKLAADEDDDDDDEEDDDEDDDDDDFDDEEAEE"}},
  "assay_in_all_cases": "native MS",
  "key": {"native MS [1]": {"target": "the molecule itself"}, "[2]": {"target": "Nucleophosmin 1, full-length (FL NPM1) (human)"}, "[3]": {"target": "B3"}, "native MS [4]": {"target": "the molecule itself", "remark": "listed apart in the source"}},
  "note": "“And” between values parts separate entries of the source, which are not always exact repeats. Equal entries are not always repeated. Where two headings read alike, the source gives them in different places.",
  "data": [
    {"binder": "B1", "values": [
      {"measurement": "stoichiometry N", "setting": "native MS [1]", "result": "10 and 5"}
    ]},
    {"binder": "B2", "values": [
      {"measurement": "binding result", "setting": "[2]", "result": "binds"},
      {"measurement": "binding result", "setting": "[3]", "result": "binds"}
    ]},
    {"binder": "B3", "values": [
      {"measurement": "stoichiometry N", "setting": "native MS [4]", "result": "≥ 25", "unit": "subunits"}
    ]},
    {"binder": "B4", "values": [
      {"measurement": "stoichiometry N", "setting": "native MS [1]", "result": "5 and 10"}
    ]}
  ]
}
